# Laboratory results taken from patent EP2787008B1 (Samsung Electronics Co., Ltd., dated 2019).
# Target: T1, huAbF46-H4-A1 (IgG2 Fc)
# T1 construct: Human IgG2 hinge and constant region, human kappa; also called anti-c-Met antibody; biotinylated anti-c-Met antibody
# Test: SPR, Biacore (GE healthcare); format not stated
# T1 sequence (VH, as listed by the source, chain 1 of 2): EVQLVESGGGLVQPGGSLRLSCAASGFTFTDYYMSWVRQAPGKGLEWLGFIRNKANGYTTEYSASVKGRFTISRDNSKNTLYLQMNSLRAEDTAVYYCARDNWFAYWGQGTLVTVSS
# T1 sequence (VL, as listed by the source, chain 2 of 2): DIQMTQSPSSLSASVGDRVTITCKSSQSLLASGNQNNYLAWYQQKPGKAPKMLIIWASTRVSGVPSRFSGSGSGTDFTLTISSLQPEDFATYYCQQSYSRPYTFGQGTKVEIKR
binder,measurement,value
"EW02 (antibody, human IgG1, V domains shown, also called EW02 antibody) VH: EVQLLESGGGLVQPGGSLRLSCAASGFTFSNYAMSWVRQAPGKGLEWVSSISSSGGNTYYADSVKGRFTISRDNSKNTLYLQMNSLGAEDTAVYYCAKYHSVFDYWGQGTLVTVSS VL: not shown",Kd,38.4 nM
same,koff,0.0032 s⁻¹
same,kon,85000 M⁻¹ s⁻¹
